This is an account of results in patent US20190111122A1 (ENGINEERED ANTIGENS, published 2019).

The target of this experiment is T1, biotinylated human transferrin (human, UniProt P02787 20-698, biotinylated (sites not given)).
T1 construct: Used at 0.05-0.1 mg/mL as the labelling reagent; detected with R-phycoerythrin-conjugated streptavidin; also called Sigma-aldrich T3915-5MG
Nature of the experiment: flow cytometry, E. coli C43 (DE3) cells expressing Nlobe_HpuA with SLAM1 or SLAM2, labelled with biotinylated human transferrin. In general terms: Flow cytometry measures light scatter and fluorescence of single cells or particles in a stream.

T1 sequence (P02787 20-698 limits assumed): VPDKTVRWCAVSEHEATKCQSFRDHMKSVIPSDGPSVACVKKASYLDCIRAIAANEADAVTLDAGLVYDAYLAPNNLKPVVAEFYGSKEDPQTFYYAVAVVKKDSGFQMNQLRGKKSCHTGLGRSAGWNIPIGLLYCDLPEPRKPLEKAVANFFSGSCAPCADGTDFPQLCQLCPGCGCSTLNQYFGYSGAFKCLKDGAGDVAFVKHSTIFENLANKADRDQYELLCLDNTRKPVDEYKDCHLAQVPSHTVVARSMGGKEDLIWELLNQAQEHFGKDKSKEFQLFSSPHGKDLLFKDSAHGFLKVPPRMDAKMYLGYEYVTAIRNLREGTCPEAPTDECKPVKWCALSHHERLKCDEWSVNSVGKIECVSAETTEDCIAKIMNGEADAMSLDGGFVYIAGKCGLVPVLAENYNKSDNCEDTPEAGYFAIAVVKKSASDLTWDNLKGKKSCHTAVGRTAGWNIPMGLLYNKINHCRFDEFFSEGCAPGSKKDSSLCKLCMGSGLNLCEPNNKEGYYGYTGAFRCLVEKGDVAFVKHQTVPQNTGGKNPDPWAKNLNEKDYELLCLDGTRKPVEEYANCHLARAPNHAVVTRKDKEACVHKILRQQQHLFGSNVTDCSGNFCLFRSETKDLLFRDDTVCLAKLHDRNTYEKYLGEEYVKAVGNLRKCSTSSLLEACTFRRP

B1: TbpB N-lobe fused to HpuA (N. meningitidis) (other)
chain: CLGGGGSFDLDSVETVQDMHSKPKYEDEKSQPESQQDVSENSGAAYGFAVKLPRRNAHFNPKYKEKHKPLGSMDWKKLQRGEPNSFSERDELEKKRGSSELIESKWEDGQSRVVGYTNFTYVRSGYVYLNKNNIDIKNNIVLFGPDGYLYYKGKEPSKELPSEKITYKGTWDYVTDAMEKQRFEGLGSAAGGDKSGALSALEEGVLRNQAEASSGHTDFGMTSEFEVDFSDKTIKGTLYRNNRITQNNSENKQIKTTRYTIQATLHGNRFKGKALAADKGATNGSHPFISDSDSLEGGFYGPKGEELAGKFLSNDNKVAAVFGAKQKDKKDAGGGVAEPHVPVSIPTATPLPTGEVKLSDDNSKIENINTADTGSTSGISIQQRKYEVESYGIKREEKAFIFQTPGGAQYALSSYADPITVSYSSPDFKIPDRHAGQRLADGSRIFICCSESGATSYAEITKQDYMKFGAWIGPNGEIDLFAGGFPVGKTPKPKYSWGNTEPETKGKGKITYQVWGIRVRNRQFVTSSYTPPKSGSYYGTLANTPVLSFITANFNSNKLAGEIRGNSDYGPSVKIENATINSLSFSGTATSGGKTGNLEGKFFGKFNGYRDTETSIGGKITFDGDRSLDTVFGGVSYKKELENNTDTSTTHLTK
notes: also called Nlobe-HpuA
For the molecule B1, the binding result is “binds”.
